These results are taken from patent publication US20190300618A1 (Merck Sharp & Dohme, published 2019).

Residue numbers refer to the chain shown, from its start.

Holding throughout (assay): flow cytometry, CHO-K1; single column;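 further: CHO-K1 cells transiently transfected with hCD27 alanine mutant constructs, anti-hCD27 antibody binding measured by flow cytometry, 30 min at 4 °C, wild-type hCD27 binding taken as 100%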
In general terms: In flow cytometry, cells or beads pass a laser one at a time.

The target in one test is T1, R10A.
T1 construct: also called hCD27 R10A
T1 receptor: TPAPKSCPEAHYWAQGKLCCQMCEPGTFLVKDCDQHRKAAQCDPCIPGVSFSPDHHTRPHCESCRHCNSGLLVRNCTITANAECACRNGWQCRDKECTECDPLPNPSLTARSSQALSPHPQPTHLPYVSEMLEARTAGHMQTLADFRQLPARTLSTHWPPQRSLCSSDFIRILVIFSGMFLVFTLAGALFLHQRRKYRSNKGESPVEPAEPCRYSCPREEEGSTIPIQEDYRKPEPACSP

The next test deals with T2, G16A.
T2 construct: also called hCD27 G16A
T2 receptor: T1 receptor with A10R, G16A

In a further test the target is T3, V30A.
T3 construct: also called hCD27 V30A
T3 receptor: T1 receptor with A10R, V30A

For the next test, the target named is T4, D32A.
T4 construct: also called hCD27 D32A
T4 receptor: T1 receptor with A10R, D32A

The target of the next test is T5, R37A.
T5 construct: also called hCD27 R37A
T5 receptor: T1 receptor with A10R, R37A

The target of another test is T6, K38A.
T6 construct: also called hCD27 K38A
T6 receptor: T1 receptor with A10R, K38A

Another test deals with T7, D43A.
T7 construct: also called hCD27 D43A
T7 receptor: T1 receptor with A10R, D43A

In the next test the target is T8, S63A.
T8 construct: also called hCD27 S63A
T8 receptor: T1 receptor with A10R, S63A

Another test deals with T9, Q91A.
T9 construct: also called hCD27 Q91A
T9 receptor: T1 receptor with A10R, Q91A

Another test deals with T10, R93A.
T10 construct: also called hCD27 R93A
T10 receptor: T1 receptor with A10R, R93A

B1: hCD27.15-6B (humanized hCD27.15, human IgG4, Clone 6B) (antibody, V domains shown)
VH: QVQLVQSGAEVKKPGASVKVSCKASGFIIKATYMHWVRQAPGQRLEWMGRIDPANGETKYDPKFQVRVTITADTSASTAYMELSSLRSEDTAVYYCARYAWYFDVWGQGTLVTVSS
VL: DIQMTQSPSSLSASVGDRVTITCRASENIYSFLAWYQQKPGKAPKLLIYHAKTLAEGVTSRFSGSGSGTDFTLTISSLQPEDSATYYCQHYYGSPLTFGQGTRLEIKR
notes: humanized version of hCD27.15 from WO2012/004367 with identical CDR regions; also called hCD27.15 (humanized 6B); hCD27.15 6B humanized antibody
For B1, the “% of WT hCD27 binding (geo mean FITC)” value in the test with R10A came to 58.9%; with G16A it was 141%; with V30A, 82.6%; with D32A it was 50.6%; with R37A, 106%; with K38A, 97.6%. For the same molecule, the “% of WT hCD27 binding (geo mean FITC)” value came to 31% with D43A, 104% in the test with S63A, 136% in the test with Q91A and 131% with R93A.
